To fix the notation:
B1: h009-07 (antibody, human IgG1, kappa)
heavy: not shown
light: EIVLTQSPATLSLSPGERATLSCRASQSIYTNLHWYQQKPGQSPRLLIKYASQSISGIPARFSGSGSGTDFTLTISSLEPEDFAVYYCQQSNSWPLTFGGGTKVEIKRTVAAPSVFIFPPSDEQLKSGTASVVCLLNNFYPREAKVQWKVDNALQSGNSQESVTEQDSKDSTYSLSSTLTLSKADYEKHKVYACEVTHQGLSSPVTKSFNRGEC
notes: Humanized, human IgG1 / kappa; h009 VH2 + h009 VL2
B2: h009-11 (antibody, human IgG1, kappa, V domains shown)
VH: EVQLVQSGAEVKKPGASVKVSCKASGYTFTDYNLNWVRQAPGQRLEWMGVINPKYDAINYNQKFKDRVTITRDTSASTAYMELSSLRSEDTAVYYCAREGWGKALDYWGQGTLVTVSS
VL: EFVLTQSPATLSLSPGERATLSCRASQSIYTNLHWYQQKPGQSPRLLIKYASQSISGIPARFSGSGSGTDFTLTISSLEPEDFAVYFCQQSNSWPLTFGGGTKVEIKR
B3: h009-09 (antibody, human IgG1, kappa, V domains shown)
VH: EFQLVQSGAEVKKPGASVKVSCKASGYTFTDYNLNWVKQAPGQSLEWMGVINPKYDAINYNQKFKDKVTLTVDQSASTAYMELSSLRSEDTAVYYCAREGWGKALDYWGQGTLVTVSS
VL: EIVLTQSPATLSLSPGERATLSCRASQSIYTNLHWYQQKPGQSPRLLIKYASQSISGIPARFSGSGSGTDFTLTISSLEPEDFAVYYCQQSNSWPLTFGGGTKVEIKR
B4: h009-08 (antibody, human IgG1, kappa, V domains shown)
VH: EFQLVQSGAEVKKPGASVKVSCKASGYTFTDYNLNWVRQAPGQSLEWIGVINPKYDAINYNQKFKDRATITVDTSASTAYMELSSLRSEDTAVYYCAREGWGKALDYWGQGTLVTVSS
VL: EIVLTQSPATLSLSPGERATLSCRASQSIYTNLHWYQQKPGQSPRLLIKYASQSISGIPARFSGSGSGTDFTLTISSLEPEDFAVYYCQQSNSWPLTFGGGTKVEIKR
B5: h009-12 (antibody, human IgG1, kappa, V domains shown)
VH: EFQLVQSGAEVKKPGASVKVSCKASGYTFTDYNLNWVRQAPGQSLEWMGVINPKYDAINYNQKFKDRVTITVDTSASTAYMELSSLRSEDTAVYYCAREGWGKALDYWGQGTLVTVSS
VL: EFVLTQSPATLSLSPGERATLSCRASQSIYTNLHWYQQKPGQSPRLLIKYASQSISGIPARFSGSGSGTDFTLTISSLEPEDFAVYFCQQSNSWPLTFGGGTKVEIKR
B6: h009-10 (antibody, human IgG1, kappa, V domains shown)
VH: EFQLVQSGAEVKKPGASVKVSCKASGYTFTDYNLNWVKQAPGQSLEWIGVINPKYDAINYNQKFKDKATLTVDQSASTAYMELSSLRSEDTAVYYCAREGWGKALDYWGQGTLVTVSS
VL: EIVLTQSPATLSLSPGERATLSCRASQSIYTNLHWYQQKPGQSPRLLIKYASQSISGIPARFSGSGSGTDFTLTISSLEPEDFAVYYCQQSNSWPLTFGGGTKVEIKR
B7: h009-15 (antibody, human IgG1, kappa, V domains shown)
VH: EFQLVQSGAEVKKPGASVKVSCKASGYTFTDYNLNWVKQAPGQSLEWIGVINPKYDAINYNQKFKDKATLTVDQSASTAYMELSSLRSEDTAVYYCAREGWGKALDYWGQGTLVTVSS
VL: EFVLTQSPATLSLSPGERATLSCRASQSIYTNLHWYQQKPGQSPRLLIKYASQSISGIPARFSGSGSGTDFTLTISSLEPEDFAVYFCQQSNSWPLTFGGGTKVEIKR
B8: h009-13 (antibody, human IgG1, kappa, V domains shown)
VH: EFQLVQSGAEVKKPGASVKVSCKASGYTFTDYNLNWVRQAPGQSLEWIGVINPKYDAINYNQKFKDRATITVDTSASTAYMELSSLRSEDTAVYYCAREGWGKALDYWGQGTLVTVSS
VL: EFVLTQSPATLSLSPGERATLSCRASQSIYTNLHWYQQKPGQSPRLLIKYASQSISGIPARFSGSGSGTDFTLTISSLEPEDFAVYFCQQSNSWPLTFGGGTKVEIKR
B9: h009-14 (antibody, human IgG1, kappa, V domains shown)
VH: EFQLVQSGAEVKKPGASVKVSCKASGYTFTDYNLNWVKQAPGQSLEWMGVINPKYDAINYNQKFKDKVTLTVDQSASTAYMELSSLRSEDTAVYYCAREGWGKALDYWGQGTLVTVSS
VL: EFVLTQSPATLSLSPGERATLSCRASQSIYTNLHWYQQKPGQSPRLLIKYASQSISGIPARFSGSGSGTDFTLTISSLEPEDFAVYFCQQSNSWPLTFGGGTKVEIKR
B10: h160-01 (antibody, human IgG1, kappa)
heavy: not shown
light: DIVMTQSPASLAVSLGERATINCRASESVDNYGISFMHWYQQKPGQPPKLLIYRASNLESGVPDRFSGSGSGTDFTLTISSLQAEDVAVYYCQQTNKDPLTFGGGTKVEIKRTVAAPSVFIFPPSDEQLKSGTASVVCLLNNFYPREAKVQWKVDNALQSGNSQESVTEQDSKDSTYSLSSTLTLSKADYEKHKVYACEVTHQGLSSPVTKSFNRGEC
notes: Humanized, human IgG1 / kappa; h160 VH1 + h160 VL1
B11: h011-02 (antibody, human IgG1, kappa, V domains shown)
VH: EVQLVESGGGLVQPGGSLRLSCAASGFTFSDYGMHWVRQAPGKGLEWVAFISSGSSSIYYADTVKGRFTISRDNAKSSLFLQMTSLRAEDTAVYSCARNYVSSYGYFDYWGQGTTVTVSS
VL: DIVMTQSPDSLAVSLGERATINCRASENVDNYGISFMHWYQQKPGQPPKLLIYRASNLESGVPDRFSGSGSGTDFTLTISSLQAEDVAVYYCQQSNKDPLTFGGGTKVEIKR
B12: h011-03 (antibody, human IgG1, kappa, V domains shown)
VH: EVQLVESGGGLVQPGGSLRLSCAASGFTFSDYGMHWVRQAPGKGLEWVAFISSGSSSIYYADTVKGRFTISRDNAKSSLYLQMTSLRAEDTAVYYCARNYVSSYGYFDYWGQGTTVTVSS
VL: DIVMTQSPDSLAVSLGERATINCRASENVDNYGISFMHWYQQKPGQPPKLLIYRASNLESGVPDRFSGSGSRTDFTLTISSLQAEDVAVYYCQQSNKDPLTFGGGTKVEIKR
B13: h011-01 (antibody, human IgG1, kappa)
heavy: not shown
light: DIVMTQSPDSLAVSLGERATINCRASENVDNYGISFMHWYQQKPGQPPKLLIYRASNLESGVPDRFSGSGSGTDFTLTISSLQAEDVAVYYCQQSNKDPLTFGGGTKVEIKRTVAAPSVFIFPPSDEQLKSGTASVVCLLNNFYPREAKVQWKVDNALQSGNSQESVTEQDSKDSTYSLSSTLTLSKADYEKHKVYACEVTHQGLSSPVTKSFNRGEC
notes: Humanized, human IgG1 / kappa; h011 VH1 + h011 VL1

As usually defined, the Kd is the concentration at which binding is half-saturated. What is called koff is a measure of how fast the partners let go of each other. The term kon denotes the rate constant with which the complex forms. Read a low kon as slow association.

For this experiment, the target named is T1, Fusion protein of CD38 extracellular domain with His tag: CD38-ECD-His (human, UniProt P28907 43-300).
T1 construct: unlabelled analyte in Biacore; also called human CD38-ECD-His; Human CD38-His
In words: SPR (Biacore), antibody captured by anti-human Fc, CD38-ECD-His as analyte.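 Also: human CD38-ECD-His flowed over the captured antibody with the signal tracked in real time, and association and dissociation curves were fitted to derive the affinity values.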
Experimental: Then the human CD38-ECD-His antigen passed through the surface of the chip, and a real-time detection for the reaction signal was performed with Biacore instrument. The resulting binding and dissociation curves were fitted to calculate the affinity values. After the dissociation of each cycle was completed in the experiment, the biochip was washed and regenerated with the regeneration solution supplied in the Human Fc Capture Kit (GE).
Consider B1, for which the Kd turned out to be 0.995 nM, the koff is 0.0021 s⁻¹ and the on-rate (kon) is 2.11e+06 M⁻¹ s⁻¹.
B2 returned an equilibrium dissociation constant (Kd) of 5.17 nM, a koff of 0.0121 s⁻¹ and a kon of 2.33e+06 M⁻¹ s⁻¹.
The corresponding values for B3 are 2.14 nM, 0.00489 s⁻¹ and 2.29e+06 M⁻¹ s⁻¹.
The corresponding values for B4 are 1.18 nM, 0.00223 s⁻¹ and 1.89e+06 M⁻¹ s⁻¹.
The like results for B5 were, in that order, 0.409 nM, 0.000917 s⁻¹ and 2.24e+06 M⁻¹ s⁻¹.
In turn, B6 showed an equilibrium dissociation constant (Kd) of 2.12 nM, an off-rate constant (koff) of 0.00433 s⁻¹ and an on-rate constant (kon) of 2.04e+06 M⁻¹ s⁻¹.
As to B7, the equilibrium dissociation constant (Kd) is 0.745 nM, the koff worked out at 0.0017 s⁻¹ and the association rate constant (kon) was 2.28e+06 M⁻¹ s⁻¹.
The molecule B8 gave a Kd of 0.465 nM, a koff of 0.00106 s⁻¹ and an association rate constant (kon) of 2.28e+06 M⁻¹ s⁻¹.
In turn, B9 gave a Kd of 0.815 nM, an off-rate (koff) of 0.00185 s⁻¹ and an on-rate constant (kon) of 2.27e+06 M⁻¹ s⁻¹.
The molecule B10 had a Kd of 0.0687 nM, a koff of 0.000136 s⁻¹ and a kon of 1.99e+06 M⁻¹ s⁻¹.
B11 registered an equilibrium dissociation constant (Kd) of 0.297 nM, an off-rate constant (koff) of 0.00195 s⁻¹ and an on-rate (kon) of 6.59e+06 M⁻¹ s⁻¹.
Molecule B12 registered a dissociation constant Kd of 0.306 nM, a koff of 0.00213 s⁻¹ and an association rate constant (kon) of 6.97e+06 M⁻¹ s⁻¹.
With B13, binding was put at a Kd of 0.311 nM, the koff worked out at 0.00208 s⁻¹ and the on-rate (kon) is 6.68e+06 M⁻¹ s⁻¹.

Values taken from patent US20220275100A1 (JIANGSU HENGRUI MEDICINE, published 2022).
